How the values were obtained:
[1] = target: T1, porcine CD163 with deletion of SRCR domain 5, on pPAMΔ5 cells (porcine, UniProt Q2VL90 47-1115); assay: P.E. FACS screening on pPAMΔ5 cells
T1 construct: also called pPAMΔ5 domain cells; pPAMΔ5 WT cells
T1 sequence: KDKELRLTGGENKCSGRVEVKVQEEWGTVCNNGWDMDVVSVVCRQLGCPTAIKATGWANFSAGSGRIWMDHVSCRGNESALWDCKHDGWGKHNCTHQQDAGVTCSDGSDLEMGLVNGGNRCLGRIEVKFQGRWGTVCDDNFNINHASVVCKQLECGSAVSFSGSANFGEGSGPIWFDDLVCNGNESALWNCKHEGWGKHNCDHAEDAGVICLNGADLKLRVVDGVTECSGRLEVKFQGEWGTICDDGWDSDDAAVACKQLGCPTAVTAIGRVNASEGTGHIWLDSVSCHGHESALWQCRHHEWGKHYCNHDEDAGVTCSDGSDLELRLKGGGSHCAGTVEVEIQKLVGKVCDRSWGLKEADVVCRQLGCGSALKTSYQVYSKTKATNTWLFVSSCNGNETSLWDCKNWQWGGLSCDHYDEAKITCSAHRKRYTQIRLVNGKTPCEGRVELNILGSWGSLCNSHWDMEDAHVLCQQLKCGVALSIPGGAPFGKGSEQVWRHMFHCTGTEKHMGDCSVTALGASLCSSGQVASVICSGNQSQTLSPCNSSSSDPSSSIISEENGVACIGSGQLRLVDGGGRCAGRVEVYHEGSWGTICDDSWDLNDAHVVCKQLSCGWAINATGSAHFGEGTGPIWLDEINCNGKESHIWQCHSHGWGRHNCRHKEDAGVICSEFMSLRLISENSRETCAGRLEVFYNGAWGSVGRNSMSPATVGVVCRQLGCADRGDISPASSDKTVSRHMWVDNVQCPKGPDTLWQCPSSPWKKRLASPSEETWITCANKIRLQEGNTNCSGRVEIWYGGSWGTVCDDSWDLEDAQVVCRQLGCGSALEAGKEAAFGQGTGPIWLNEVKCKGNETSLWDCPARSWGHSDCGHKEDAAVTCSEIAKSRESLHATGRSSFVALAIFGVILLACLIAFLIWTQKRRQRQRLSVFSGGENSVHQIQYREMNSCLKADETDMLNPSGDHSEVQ

[2] = target: T2, porcine CD163, membrane-bound form on porcine pulmonary alveolar macrophage (pPAM) WT cells (porcine, UniProt Q2VL90 47-1115); assay: P.E. FACS screening on pPAM WT cells
T2 construct: Native CD163 on primary cells; also called membrane CD163; cell-surface CD163
T2 sequence: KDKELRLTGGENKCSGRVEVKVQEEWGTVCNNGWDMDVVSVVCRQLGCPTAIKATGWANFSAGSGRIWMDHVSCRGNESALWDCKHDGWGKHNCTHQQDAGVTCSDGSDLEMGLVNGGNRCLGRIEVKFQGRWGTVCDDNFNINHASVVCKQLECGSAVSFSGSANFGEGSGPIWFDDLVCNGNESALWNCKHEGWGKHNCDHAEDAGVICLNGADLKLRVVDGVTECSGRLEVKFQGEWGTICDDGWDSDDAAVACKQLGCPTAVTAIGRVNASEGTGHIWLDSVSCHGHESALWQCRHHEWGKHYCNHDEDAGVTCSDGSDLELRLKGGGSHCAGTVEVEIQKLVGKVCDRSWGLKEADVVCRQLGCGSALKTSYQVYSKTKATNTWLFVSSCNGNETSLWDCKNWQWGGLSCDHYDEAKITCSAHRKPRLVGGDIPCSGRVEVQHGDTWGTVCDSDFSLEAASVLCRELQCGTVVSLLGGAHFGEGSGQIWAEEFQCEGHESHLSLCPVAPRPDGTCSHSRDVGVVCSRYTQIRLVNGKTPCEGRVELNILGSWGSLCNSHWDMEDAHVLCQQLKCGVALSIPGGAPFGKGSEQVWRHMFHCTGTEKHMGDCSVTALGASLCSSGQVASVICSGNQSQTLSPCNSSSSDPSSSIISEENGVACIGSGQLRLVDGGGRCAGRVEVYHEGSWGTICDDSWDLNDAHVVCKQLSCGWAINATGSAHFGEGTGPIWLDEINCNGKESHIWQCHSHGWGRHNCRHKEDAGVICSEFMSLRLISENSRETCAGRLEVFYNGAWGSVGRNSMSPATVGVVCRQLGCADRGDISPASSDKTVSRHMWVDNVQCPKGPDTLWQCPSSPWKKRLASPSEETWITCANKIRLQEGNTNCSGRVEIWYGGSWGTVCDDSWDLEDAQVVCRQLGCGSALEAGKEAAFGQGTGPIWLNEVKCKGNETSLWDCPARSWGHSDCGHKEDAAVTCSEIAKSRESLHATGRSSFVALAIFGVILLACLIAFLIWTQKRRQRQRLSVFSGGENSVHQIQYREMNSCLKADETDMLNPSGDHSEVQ

[3] = target: T2, porcine CD163, membrane-bound form on …; assay: cell-based or functional assay
[4] = target: T2, porcine CD163, membrane-bound form on …; assay: cell-based or functional assay; remark: listed apart in the source
[5] = target: T2, porcine CD163, membrane-bound form on …; assay: dose-response FACS on pPAM WT cells, anti-FLAG-biotin and streptavidin R-PE detection
Method: Biparatopic and triparatopic antibody constructs in PBS (pH7.4) were diluted in a 3-fold serial dilutions from 150 nM down to 0.023 nM in FACS buffer (0.5% FBS, 0.5 mM EDTA in 1×PBS pH7.4). Biparatopic and triparatopic candidates were incubated with anti-FLAG-Biotin (Sigma, Cat. nr. F9291), for 30 min on ice with shaking. This mixture was added to pPAM WT cells and incubated for 60 min on ice with gentle shaking. Cells were washed 3×with 150 μl/well of FACS buffer and incubated with 50 μl/well of the secondary detection reagent Streptavidin R-P.E. conjugate antibody (Invitrogen, Cat. nr. SA10044) for 30 min on ice with shaking and protected from light. Cells were then washed 3× with 150 μl/well of FACS Buffer and resuspended in 50 μl/well of FACS buffer to be measured on a FACS machine (Attune™ N×T), and a total of 10000 cells were acquired per sample.

B1: Clone 19-H03E11 VHH antibody (VHH)
VHH: QVQLQESGGGLVQVGSSLRLSCVTSGRTPSRYVMGWFRQAPGQEREFVAAISWSGRAPYADSVKGRFTISRDNAKNTVYLQMNSLKPEDTGVYYCAGGEGAIKWTTLDAYDYWGQGTQVTVSS
notes: Tested as periplasmic extract in ELISA and FACS screening; also called VHH 019 (3E11)
binding result [1]: no binding
binding result [2]: binds

B2: 17B11 + 03E11 + 03D03 2(G4S) triparatopic VHH construct (bispecific antibody)
chain: QVQLVESGGGLVQAGGSLRLSCAASGRTFSSYAMGWFRQTPGKDREFVARIGWTGGTTIYADSVKGRFTISRDNAKNTVYLQMNSLKPEDTAVYYCAADQAGWRTAGVRNTYEYDYWGQGTQVTVSSGGGGSGGGGSQVQLQESGGGLVQVGSSLRLSCVTSGRTPSRYVMGWFRQAPGQEREFVAAISWSGRAPYADSVKGRFTISRDNAKNTVYLQMNSLKPEDTGVYYCAGGEGAIKWTTLDAYDYWGQGTQVTVSSGGGGSGGGGSQLQLVESGGGLVQPGGSLRLSCAASGFTLDDYTIGWFRQAPGKEREGVSCINSITSNTYYADSVKGRFTISRDNAKNTVYLQMNSLTAEDTAIYYCAADSGLFSGSSCLKYRAMRFGSWGQGTQVTVSS
notes: Triparatopic; also called Tri-10; Triparatopic-10; not shown: FLAG and His tags
IC50, PRRSV2 strain MN184 infection assay, 10% FBS [3]: 2.84 nM
IC50, PRRSV2 strain NA174 infection assay, high CD163 porcine serum [3]: 7.6 nM
IC50, PRRSV2 strain NA174 infection assay, low CD163 porcine serum [3]: 3.94 nM
IC50, PRRSV1 LT3 infection assay, high CD163 porcine serum [4]: 4.02 nM
IC50, PRRSV1 LT3 infection assay, low CD163 porcine serum [4]: 3.41 nM
EC50 [5]: 11.6 nM

B3: Clone 17-H03D03 VHH antibody (VHH)
VHH: QLQLVESGGGLVQPGGSLRLSCAASGFTLDDYTIGWFRQAPGKEREGVSCINSITSNTYYADSVKGRFTISRDNAKNTVYLQMNSLTAEDTAIYYCAADSGLFSGSSCLKYRAMRFGSWGQGTQVTVSS
notes: Tested as periplasmic extract in ELISA and FACS screening; also called VHH 017 (3D03)
binding result [1]: no binding
binding result [2]: binds
